Data from publication PMC8844826 (iScience, 2022).
Ends that are not written are not given here. TAMRA = 5 (and 6)-carboxytetramethylrhodamine

Key:
[1] = target: T1, full length PSD-95 (FL-PSD-95, 1-724) (human, UniProt P78352 1-724); experiment: fluorescence polarisation; saturation binding: increasing protein, fixed fluorescently labeled peptide; 50 mM Tris (pH 8.0), 300 mM NaCl, 10 mM EDTA, 1 mM TCEP; 20 min on ice; settings: both partners purified
T1 construct: construct 32M3C-PSD-95 FL 1-724 from Zeng et al. (2016a); A PreScission 3C site follows the tags; For the arrays 0.1 uM of 1 uM was labelled with Alexa 633 (maleimide); also called PSD protein 95; 32M3C-PSD-95 FL; source: E. coli BL21-DE3-pLysS, purified (HisTrap, SEC)

GST-Arc 195-364 (rat) = target: T2, GST-Arc 195-364 (rat) (rat, UniProt Q63053 195-364); experiment: as above; settings: both partners purified
T2 construct: rat Arc residues 195-364, Uniprot Q63053; GST is followed by a thrombin and a factor Xa site; the protein was eluted with glutathione and no cleavage is described; also called pGEX4T1-Arc 195-364; source: E. coli BL21-DE3-pLysS, purified (Glutathione Sepharose, SEC)
T2 sequence (looked up): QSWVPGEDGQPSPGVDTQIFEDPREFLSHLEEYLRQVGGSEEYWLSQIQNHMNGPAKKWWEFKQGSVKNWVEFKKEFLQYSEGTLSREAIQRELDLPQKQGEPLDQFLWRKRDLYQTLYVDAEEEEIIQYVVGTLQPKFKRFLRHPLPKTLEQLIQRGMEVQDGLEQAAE

T1 sequence (P78352 whole entry): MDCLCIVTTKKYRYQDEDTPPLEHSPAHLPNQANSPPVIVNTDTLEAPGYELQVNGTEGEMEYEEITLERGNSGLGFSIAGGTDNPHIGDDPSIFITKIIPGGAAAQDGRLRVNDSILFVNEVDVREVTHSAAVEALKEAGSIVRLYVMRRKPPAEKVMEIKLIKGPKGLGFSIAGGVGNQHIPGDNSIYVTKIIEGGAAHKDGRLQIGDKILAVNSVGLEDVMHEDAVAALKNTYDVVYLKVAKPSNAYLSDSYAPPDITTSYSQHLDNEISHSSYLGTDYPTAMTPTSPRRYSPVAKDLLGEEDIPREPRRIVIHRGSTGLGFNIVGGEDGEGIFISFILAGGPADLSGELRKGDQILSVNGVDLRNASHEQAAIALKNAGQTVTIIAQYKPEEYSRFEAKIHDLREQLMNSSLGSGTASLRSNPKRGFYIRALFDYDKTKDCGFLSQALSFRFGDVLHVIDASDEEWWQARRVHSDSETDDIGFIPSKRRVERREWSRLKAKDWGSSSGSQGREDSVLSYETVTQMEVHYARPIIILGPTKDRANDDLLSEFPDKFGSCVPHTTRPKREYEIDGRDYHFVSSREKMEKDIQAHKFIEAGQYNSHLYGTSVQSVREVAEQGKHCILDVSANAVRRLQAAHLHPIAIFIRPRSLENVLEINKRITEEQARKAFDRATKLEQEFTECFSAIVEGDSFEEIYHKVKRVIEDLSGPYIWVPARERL

B1: TAMRA-G-A222ITRIPSYRYRYQRR236 (fluorescently labeled Stg A222-R236 peptide) (peptide)
peptide: {TAMRA}-GAITRIPSYRYRYQRR
notes: added glycine between TAMRA and A222; also called TMR labeled Stg_(A222-R236); source: synthetic peptide (in-house)
[1]
  Kd: 14.9 ± 3 µM
GST-Arc 195-364 (rat)
  Kd: 8.37 ± 1.25 µM
